± gives the uncertainty stated by the source.
Experiment: protein stability index of a GFP-peptide fusion (yeast GPS) (PSI 1-4); higher = more stable; sorted into four equal gates, so the index is relative within each strain
In short: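 Tiled 17-residue peptides from yeast proteins were fused downstream of GFP on a plasmid that also expresses Cherry, and the pooled library was carried in yeast. Mid-log cultures grown in leucine-free medium were sorted into four equal gates by GFP/Cherry fluorescence ratio. Plasmids from each gate were PCR-amplified and Illumina-sequenced, and reads were assigned to strains by barcodes. Each peptide's protein stability index is the sum, over gates, of the gate's read frequency multiplied by its gate number.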

Row | Sequence | protein stability index (doa10∆) | protein stability index (pdr5∆) | protein stability index (san1∆) | protein stability index (ubr1∆)
1 | KLLDSGCENPADVFRRC [SRP72] | 2.46 ± 0.058 | 1.72 ± 0.047 | 2.13 ± 0.1 | 2.16 ± 0.071
2 | KEKLTVQDCRYSLASVT [POP1] | 2.69 ± 0.039 | 2.62 ± 0.043 | 2.35 ± 0.043 | 2.46 ± 0.035
3 | SCKDSQLKWAQNTIDDT [YIL149C/MLP2] | 2.15 ± 0.042 | 2.89 ± 0.057 | 2.65 ± 0.046 | 2.74 ± 0.053
4 | ANRVTDKLTRVHDKIWC [PRE3] | 2 ± 0.12 | 2.42 ± 0.085 | 2.38 ± 0.063 | 2.34 ± 0.095
5 | LDDDSIVNHEQDLPKIN [SRB4] | 2.7 ± 0.14 | 2.92 ± 0.082 | 2.99 ± 0.09 | 2.81 ± 0.063
6 | FLQGESPFSITFSVYHE [YMR129W/POM152] | 2.4 ± 0.073 | 2.08 ± 0.056 | 2.64 ± 0.047 | 2.36 ± 0.052
7 | YGSSPKLLATSTKIIML [SRB8] | 1.59 ± 0.065 | 1.7 ± 0.063 | 1.63 ± 0.16 | 1.24 ± 0.069
8 | QQQMANNNGNPGTTSTG [GAL11] | 3.13 ± 0.11 | 3.44 ± 0.065 | 3.26 ± 0.049 | 3.31 ± 0.043
9 | FLQPLLLVGLIKTFYWL [NUT1] | 1.8 ± 0.051 | 2.3 ± 0.062 | 1.5 ± 0.089 | 1.8 ± 0.051
10 | IYRGVLNDENSDDYDNE [SMC1] | 3.19 ± 0.24 | 3.41 ± 0.15 | 3.21 ± 0.24 | 3.42 ± 0.14
11 | HKVTQKKDIKIGTNDLF [SIR4] | 2.63 ± 0.12 | 2.61 ± 0.11 | 2.7 ± 0.072 | 2.27 ± 0.13
12 | ICLYSSFQKNSLHNTEK [AAR2] | 1.99 ± 0.065 | 2.24 ± 0.058 | 2.57 ± 0.064 | 2.78 ± 0.057
13 | DYLNAELGEFFVNGVAT [FAS2] | 3.09 ± 0.093 | 2.79 ± 0.24 | 3.06 ± 0.12 | 3.35 ± 0.08
14 | CIPLVGISVPFHSTYLM [FAS1] | 1.43 ± 0.041 | 1.3 ± 0.04 | 1.27 ± 0.069 | 1.39 ± 0.027
15 | RRRTYRAHGRINKYESS [RPL17A] | 1.87 ± 0.2 | 2.37 ± 0.094 | 1.9 ± 0.13 | 2.05 ± 0.065
16 | GKTYMGWWGHMGGPKQK [QCR8] | 1.88 ± 0.22 | 1.79 ± 0.11 | 1.63 ± 0.19 | 2.4 ± 0.14
17 | PHSLATKTTGKCGSVTV [RPS2] | 1.2 ± 0.12 | 1.27 ± 0.1 | – | –
18 | DDDTFSDREMAALIASK [RPN2] | 1.6 ± 0.079 | 1.55 ± 0.056 | 1.32 ± 0.12 | 1.79 ± 0.063
19 | SKEVRGSKIRVMWGKVT [RPL33A] | 2.68 ± 0.1 | 2.35 ± 0.12 | 2.4 ± 0.092 | 2.6 ± 0.067
20 | TSLLDSLISVLEASLNS [YJL039C/NUP192] | 1.94 ± 0.083 | 1.77 ± 0.09 | 1.87 ± 0.19 | 1.58 ± 0.08
21 | TCAGGRLFNVVVQDSQT [SMC2] | 2.84 ± 0.11 | 3.18 ± 0.11 | 2.39 ± 0.12 | 2.76 ± 0.082
22 | KLRETLVKIDDLSANQR [SMC1] | 3.11 ± 0.11 | 3.29 ± 0.12 | 3.07 ± 0.11 | 3.09 ± 0.077
23 | TKAVEFSMGHIRSSSVS [MED4] | 3.26 ± 0.12 | 3.38 ± 0.093 | 3.18 ± 0.078 | 2.99 ± 0.078
24 | KQRLDLARQVKLLLLNT [YIL149C/MLP2] | 2.56 ± 0.059 | 2.15 ± 0.058 | 1.98 ± 0.092 | 1.88 ± 0.034
25 | INIDDLLYELTAFKATV [YJL039C/NUP192] | 2.58 ± 0.052 | 2.67 ± 0.055 | 2.41 ± 0.054 | 2.44 ± 0.043
26 | MPGGYFHSEISPDSTVN [YAR002W/NUP60] | 2.56 ± 0.076 | 3 ± 0.095 | 2.54 ± 0.061 | 2.76 ± 0.063
27 | SSTQDVILRKISMLVTQ [CSI1] | 1.62 ± 0.054 | 1.75 ± 0.054 | 1.91 ± 0.085 | 1.77 ± 0.041

Row | Sequence | protein stability index (doa10∆) | protein stability index (pdr5∆) | protein stability index (san1∆) | protein stability index (ubr1∆)
28 | EPQGAVTHMDQIFVRGS [SMD3] | 2.64 ± 0.11 | 2.77 ± 0.07 | 2.62 ± 0.099 | 2.56 ± 0.11
29 | PITSETAMKKVEDGNIL [RPL25] | 3.05 ± 0.16 | 3.18 ± 0.095 | 3.12 ± 0.22 | 3.24 ± 0.15
30 | KYHNDLIEKEIQPKITE [SMC1] | 3.11 ± 0.13 | 3.05 ± 0.083 | 2.71 ± 0.073 | 3.07 ± 0.059
31 | YPNSSKLKRNSDRREHD [LIN1] | 3.25 ± 0.083 | 3.1 ± 0.067 | 3.02 ± 0.045 | 3.03 ± 0.075
32 | LSNSNRFELHGDMTNSD [REC8] | 2.82 ± 0.14 | 3.13 ± 0.16 | 2.58 ± 0.14 | 2.7 ± 0.2
33 | IADELMKLDDSSKTRNV [ITC1] | 2.61 ± 0.072 | 2.09 ± 0.12 | 2.69 ± 0.072 | 2.78 ± 0.08
34 | LLAVAIAASYHYPEIED [RPP0] | 1.38 ± 0.074 | 2.11 ± 0.11 | 1.73 ± 0.13 | 1.91 ± 0.08
35 | SKLKKETASFIPTKESL [YIL149C/MLP2] | 2.74 ± 0.072 | 3.15 ± 0.098 | 2.44 ± 0.15 | 2.57 ± 0.057
36 | FISAARYKPKSHLWEID [RPC37] | 3.02 ± 0.11 | 3.06 ± 0.082 | 2.71 ± 0.067 | 3.11 ± 0.069
37 | RKSYKNQIADLSGKFST [ROX3] | 2.76 ± 0.082 | 2.94 ± 0.063 | 2.84 ± 0.06 | 2.92 ± 0.036
38 | KTASLGNSKDDLLDMIQ [ISW2] | 1.62 ± 0.066 | 2.22 ± 0.13 | 3.36 ± 0.059 | 1.94 ± 0.059
39 | LILGLNTSIAQFDIQSP [YML103C/NUP188] | 1.94 ± 0.044 | 1.81 ± 0.045 | 2.29 ± 0.071 | 2.6 ± 0.044
40 | ARIIRSELLARDIFQED [RGR1] | 2.26 ± 0.11 | 2.4 ± 0.087 | 2.14 ± 0.12 | 2.19 ± 0.096
41 | SLHSNSFSLTVSKEQFL [YJL039C/NUP192] | 1.81 ± 0.065 | 1.8 ± 0.072 | 1.84 ± 0.12 | 1.43 ± 0.078
42 | IRKIVRKDENQFSYVDS [AAR2] | 3.18 ± 0.12 | 3.14 ± 0.12 | 3.03 ± 0.073 | 3.12 ± 0.076
43 | DADKLSFNCENFFQAPQ [YML031W/NDC1] | 2.37 ± 0.08 | 2.15 ± 0.058 | 2.36 ± 0.06 | 2.3 ± 0.058
44 | ISMLVTQLQRGGTSDMN [CSI1] | 3.19 ± 0.1 | 2.53 ± 0.12 | 2.5 ± 0.11 | 2.53 ± 0.067
45 | TAFNKTRGPFHFRAPSR [RPL16B] | 2.95 ± 0.09 | 3.14 ± 0.068 | 2.59 ± 0.066 | 3 ± 0.066
46 | NTIIRDGSKMLKRADYT [RPN14] | 2.87 ± 0.096 | 2.36 ± 0.093 | 3.65 ± 0.039 | 2.2 ± 0.055
47 | LMRTFLYTLAQETEGTN [SIR3] | 2.63 ± 0.12 | 2.63 ± 0.098 | – | 2.35 ± 0.11
48 | IIKLVEGLANDPENKVP [RPS12] | 2.01 ± 0.086 | 1.77 ± 0.065 | 2.25 ± 0.092 | 2.08 ± 0.09
49 | AQFYLGKRIAYVYRASK [RPL33A] | 1.81 ± 0.068 | 1.62 ± 0.076 | 1.36 ± 0.096 | 1.74 ± 0.069
50 | TKVLNMKPSEILSLIEE [SMC2] | 2.86 ± 0.23 | 3.3 ± 0.17 | 3 ± 0.24 | 2.9 ± 0.11
51 | NTTDPLGHTKAALGEVA [SIR2] | 2.51 ± 0.065 | 2.69 ± 0.078 | 2.67 ± 0.088 | 3.08 ± 0.069
52 | SIATKRFDAQTGSDREV [RPT3] | 3.28 ± 0.13 | 3.17 ± 0.1 | 3.17 ± 0.077 | 3.48 ± 0.11
53 | LKTNGKQNNKDFRTRYI [MTW1] | 2.75 ± 0.059 | 2.84 ± 0.065 | 2.52 ± 0.081 | 2.51 ± 0.059
54 | RETDPLVYNMTSFEQGE [RPT4] | 3.09 ± 0.12 | 2.49 ± 0.11 | 3.23 ± 0.18 | 2.7 ± 0.068

Source: the supplement of paper PMC9732359
